# Measurements: PMC8176221, “Identification and Characterization of Two Transmembrane Proteins Required for Virulence of Ustilago maydis” (Frontiers in Plant Science, 2021)
# B1: Vmp2 (virulence-associated membrane protein 2), full length without the signal peptide (natural protein)
# chain: AESQCEERNDYSRKRPSHKPFTSHQNKQDRSCSSPLPSESCSTSAITPSDSAVRDTSLSRRGLPGMPGDIEWMGFYGSLLAVPTMLSILGIITNYNLGKSYYNSELNAQYYKQSREMLRAHTAKLIQDQEKKFANAGVSWNGMVYGKDGQVNPGAKLPEWNGRVLGGTVANPKSQPVPGSGGAVQGAAAGVGGGTTAGVAAGAGAASAGTGPAQVGGATAGGAGAEAQTGTGAIATGTGTGGAGDAGGSAPVSSGAEQGDAEAGDEARGSEERGDDGTEDRRGGQSEGDDDSDSDGNDEGDAGDAGDAGDA
# notes: Vmp2 (UMAG_01689) of Ustilago maydis SG200, a protein of 335 aa, cloned from genomic DNA without the signal peptide (25 aa as predicted by SignalP-5.0); one TM helix at residues 100-115; The methods say that the Mistics-tag was cleaved off with TEV before SEC; also called UMAG_01689; full length Vmp2; source: E. coli OverExpress C43 (DE3), purified (membrane fraction solubilised with DDM, Ni-NTA, …)
# Target: the molecule itself
# Assay: SEC; Vmp2 on a Superose 6 Increase 10/300 column in SEC buffer with 0.03% DDM
protein,measurement,value
B1,stoichiometry N,2
